Drawing on patent publication US20160159924A1 (Novo Nordisk, published 2016), this text covers Kd for 18 molecules.

Where two headings read alike, the source gives them in different places.

Experiment [1] deals with T1, recombinant human sc-uPA (human, UniProt P00749 21-431).
T1 construct: 411 amino acid single-chain zymogen expressed in HEK293; the 20-residue signal peptide is not present in the mature protein; also called human single-chain uPA; pro-uPA
The experiment is described as follows: SPR, mAb immobilised. The method, then: The binding affinity to recombinant human sc-uPA protein (SEQ ID NO:1) was measured by surface plasmon resonance (SPR).
(§1) The experiments were performed on a Biacore™ instrument (GE Healthcare) and analysed with the BIAcore 4000 Evaluation Software. Anti-human uPA mAb variants were directly immobilized at 150-600 RU on flow cells of a CM5 sensor chip (GE Healthcare; cat. # BR-1000-12) via amine coupling, respectively. Recombinant human sc-uPA was diluted in HBS-N (GE Healthcare Cat BR-1006-70) with 1% BSA buffer with a dilution factor 3× ranging 1000-0.13 nM. Recombinant human sc-uPA was injected for 60 s, followed by a 600 s dissociation phase. Binding curves were measured at 25° C. with a flow rate of 30 μL/min. Regeneration of the chip surface was performed with pH1.5 Glycine for 25 s at 30 μl/min. Determination of the kinetic parameters was performed by fitting with a 1:1 binding model. Binding affinities were calculated and are stated in Table 17 below.
On the technique in general: SPR reads the build-up and loss of mass on a sensor chip optically.

In experiment [2] the target is T1, recombinant human sc-uPA. The experiment can be described thus: SPR, mAb immobilised. The method, then: The binding affinity to recombinant human sc-uPA protein (SEQ ID […]) was measured by surface plasmon resonance (SPR).
as §1, with “20” for “17”
The source holds these as a separate data set.

B1: rec0266-0000-0010-VH_G99A (antibody, mouse IgG1, V domains shown)
VH: DVKLVESGGGLVKPGGSLKLSCVASGFTFSSYTMSWVRQTPEKRLEWVATISGGGSHIYYADSVKGRFTISRDNAKNTLYLQMSSLKSEDTAIYYCTRDGRDASWFAYWGQGTLVTVSA
VL: DIVMTQSPATLSVTPGDRVSLSCRTSQSIGDYLHWYQQKSHESPRLLIKYVSQSISGIPSRFSGSGSGSDFTLSINSVESEDVGVYYCQNSHSFPLTFGSGTKLELKR
The Kd is the constant that tells how readily two partners part at equilibrium. As to B1, the dissociation constant Kd in the experiment with recombinant human sc-uPA [1] came out at 2.4 nM.

B2: rec0266-0000-0010-VH_G99Y (antibody, mouse IgG1, V domains shown)
VH: DVKLVESGGGLVKPGGSLKLSCVASGFTFSSYTMSWVRQTPEKRLEWVATISGGGSHIYYADSVKGRFTISRDNAKNTLYLQMSSLKSEDTAIYYCTRDGRDYSWFAYWGQGTLVTVSA
VL: DIVMTQSPATLSVTPGDRVSLSCRTSQSIGDYLHWYQQKSHESPRLLIKYVSQSISGIPSRFSGSGSGSDFTLSINSVESEDVGVYYCQNSHSFPLTFGSGTKLELKR
As for B2, the Kd in the experiment with recombinant human sc-uPA [1] was found to be 1.8 nM.

B3: rec0266-0000-0010-VH_G99S (antibody, mouse IgG1, V domains shown)
VH: DVKLVESGGGLVKPGGSLKLSCVASGFTFSSYTMSWVRQTPEKRLEWVATISGGGSHIYYADSVKGRFTISRDNAKNTLYLQMSSLKSEDTAIYYCTRDGRDSSWFAYWGQGTLVTVSA
VL: DIVMTQSPATLSVTPGDRVSLSCRTSQSIGDYLHWYQQKSHESPRLLIKYVSQSISGIPSRFSGSGSGSDFTLSINSVESEDVGVYYCQNSHSFPLTFGSGTKLELKR
As for B3, in the experiment with recombinant human sc-uPA [1], the dissociation constant (Kd) amounted to 0.41 nM.

B4: rec0266-0000-0010-VL_N90H (antibody, mouse IgG1, name in Kabat numbering, V domains shown)
VH: DVKLVESGGGLVKPGGSLKLSCVASGFTFSSYTMSWVRQTPEKRLEWVATISGGGSHIYYADSVKGRFTISRDNAKNTLYLQMSSLKSEDTAIYYCTRDGRDGSWFAYWGQGTLVTVSA
VL: DIVMTQSPATLSVTPGDRVSLSCRTSQSIGDYLHWYQQKSHESPRLLIKYVSQSISGIPSRFSGSGSGSDFTLSINSVESEDVGVYYCQHSHSFPLTFGSGTKLELKR
For B4, in the experiment with recombinant human sc-uPA [2], the Kd was determined as 0.4 nM.

B5: rec0266-0000-0010-VH_G99F (antibody, mouse IgG1, V domains shown)
VH: DVKLVESGGGLVKPGGSLKLSCVASGFTFSSYTMSWVRQTPEKRLEWVATISGGGSHIYYADSVKGRFTISRDNAKNTLYLQMSSLKSEDTAIYYCTRDGRDFSWFAYWGQGTLVTVSA
VL: DIVMTQSPATLSVTPGDRVSLSCRTSQSIGDYLHWYQQKSHESPRLLIKYVSQSISGIPSRFSGSGSGSDFTLSINSVESEDVGVYYCQNSHSFPLTFGSGTKLELKR
For B5, in the experiment with recombinant human sc-uPA [1], the dissociation constant Kd turned out to be 1.7 nM.

B6: rec0266-0000-0010-VH_G99I (antibody, mouse IgG1, V domains shown)
VH: DVKLVESGGGLVKPGGSLKLSCVASGFTFSSYTMSWVRQTPEKRLEWVATISGGGSHIYYADSVKGRFTISRDNAKNTLYLQMSSLKSEDTAIYYCTRDGRDISWFAYWGQGTLVTVSA
VL: DIVMTQSPATLSVTPGDRVSLSCRTSQSIGDYLHWYQQKSHESPRLLIKYVSQSISGIPSRFSGSGSGSDFTLSINSVESEDVGVYYCQNSHSFPLTFGSGTKLELKR
In the case of B6, the equilibrium dissociation constant (Kd) with recombinant human sc-uPA [1] is 4.6 nM.

B7: rec0266-0000-0010-VH_G99V (antibody, mouse IgG1, V domains shown)
VH: DVKLVESGGGLVKPGGSLKLSCVASGFTFSSYTMSWVRQTPEKRLEWVATISGGGSHIYYADSVKGRFTISRDNAKNTLYLQMSSLKSEDTAIYYCTRDGRDVSWFAYWGQGTLVTVSA
VL: DIVMTQSPATLSVTPGDRVSLSCRTSQSIGDYLHWYQQKSHESPRLLIKYVSQSISGIPSRFSGSGSGSDFTLSINSVESEDVGVYYCQNSHSFPLTFGSGTKLELKR
Turning to B7, in the experiment with recombinant human sc-uPA [1], the Kd was determined as 2.5 nM.

B8: rec0266-0000-0010-VH_G99R (antibody, mouse IgG1, V domains shown)
VH: DVKLVESGGGLVKPGGSLKLSCVASGFTFSSYTMSWVRQTPEKRLEWVATISGGGSHIYYADSVKGRFTISRDNAKNTLYLQMSSLKSEDTAIYYCTRDGRDRSWFAYWGQGTLVTVSA
VL: DIVMTQSPATLSVTPGDRVSLSCRTSQSIGDYLHWYQQKSHESPRLLIKYVSQSISGIPSRFSGSGSGSDFTLSINSVESEDVGVYYCQNSHSFPLTFGSGTKLELKR
With B8, the Kd with recombinant human sc-uPA [1] stood at 15 nM.

B9: rec0266-0000-0010-VL_N90F (antibody, mouse IgG1, name in Kabat numbering, V domains shown)
VH: DVKLVESGGGLVKPGGSLKLSCVASGFTFSSYTMSWVRQTPEKRLEWVATISGGGSHIYYADSVKGRFTISRDNAKNTLYLQMSSLKSEDTAIYYCTRDGRDGSWFAYWGQGTLVTVSA
VL: DIVMTQSPATLSVTPGDRVSLSCRTSQSIGDYLHWYQQKSHESPRLLIKYVSQSISGIPSRFSGSGSGSDFTLSINSVESEDVGVYYCQFSHSFPLTFGSGTKLELKR
In the case of B9, the Kd with recombinant human sc-uPA [2] was 0.79 nM.

B10: rec0266-0000-0010-VH_G99K (antibody, mouse IgG1, V domains shown)
VH: DVKLVESGGGLVKPGGSLKLSCVASGFTFSSYTMSWVRQTPEKRLEWVATISGGGSHIYYADSVKGRFTISRDNAKNTLYLQMSSLKSEDTAIYYCTRDGRDKSWFAYWGQGTLVTVSA
VL: DIVMTQSPATLSVTPGDRVSLSCRTSQSIGDYLHWYQQKSHESPRLLIKYVSQSISGIPSRFSGSGSGSDFTLSINSVESEDVGVYYCQNSHSFPLTFGSGTKLELKR
Take B10: the Kd with recombinant human sc-uPA [1] came out at 4.8 nM.

B11: rec0266-0000-0010-VL_N90G (antibody, mouse IgG1, name in Kabat numbering, V domains shown)
VH: DVKLVESGGGLVKPGGSLKLSCVASGFTFSSYTMSWVRQTPEKRLEWVATISGGGSHIYYADSVKGRFTISRDNAKNTLYLQMSSLKSEDTAIYYCTRDGRDGSWFAYWGQGTLVTVSA
VL: DIVMTQSPATLSVTPGDRVSLSCRTSQSIGDYLHWYQQKSHESPRLLIKYVSQSISGIPSRFSGSGSGSDFTLSINSVESEDVGVYYCQGSHSFPLTFGSGTKLELKR
As for B11, in the experiment with recombinant human sc-uPA [2], the Kd amounted to 0.68 nM.

B12: rec0266-0000-0010-VH_G99H (antibody, mouse IgG1, V domains shown)
VH: DVKLVESGGGLVKPGGSLKLSCVASGFTFSSYTMSWVRQTPEKRLEWVATISGGGSHIYYADSVKGRFTISRDNAKNTLYLQMSSLKSEDTAIYYCTRDGRDHSWFAYWGQGTLVTVSA
VL: DIVMTQSPATLSVTPGDRVSLSCRTSQSIGDYLHWYQQKSHESPRLLIKYVSQSISGIPSRFSGSGSGSDFTLSINSVESEDVGVYYCQNSHSFPLTFGSGTKLELKR
In the case of B12, in the experiment with recombinant human sc-uPA [1], the Kd came to 27 nM.

B13: rec0266-0000-0010-VH_G99N (antibody, mouse IgG1, V domains shown)
VH: DVKLVESGGGLVKPGGSLKLSCVASGFTFSSYTMSWVRQTPEKRLEWVATISGGGSHIYYADSVKGRFTISRDNAKNTLYLQMSSLKSEDTAIYYCTRDGRDNSWFAYWGQGTLVTVSA
VL: DIVMTQSPATLSVTPGDRVSLSCRTSQSIGDYLHWYQQKSHESPRLLIKYVSQSISGIPSRFSGSGSGSDFTLSINSVESEDVGVYYCQNSHSFPLTFGSGTKLELKR
Consider B13, for which the Kd with recombinant human sc-uPA [1] turned out to be 18 nM.

B14: rec0266-0000-0010-VH_G99P (antibody, mouse IgG1, V domains shown)
VH: DVKLVESGGGLVKPGGSLKLSCVASGFTFSSYTMSWVRQTPEKRLEWVATISGGGSHIYYADSVKGRFTISRDNAKNTLYLQMSSLKSEDTAIYYCTRDGRDPSWFAYWGQGTLVTVSA
VL: DIVMTQSPATLSVTPGDRVSLSCRTSQSIGDYLHWYQQKSHESPRLLIKYVSQSISGIPSRFSGSGSGSDFTLSINSVESEDVGVYYCQNSHSFPLTFGSGTKLELKR
Regarding B14, in the experiment with recombinant human sc-uPA [1], the Kd came to 2.5 nM.

B15: rec0266-0000-0010-VH_G99T (antibody, mouse IgG1, V domains shown)
VH: DVKLVESGGGLVKPGGSLKLSCVASGFTFSSYTMSWVRQTPEKRLEWVATISGGGSHIYYADSVKGRFTISRDNAKNTLYLQMSSLKSEDTAIYYCTRDGRDTSWFAYWGQGTLVTVSA
VL: DIVMTQSPATLSVTPGDRVSLSCRTSQSIGDYLHWYQQKSHESPRLLIKYVSQSISGIPSRFSGSGSGSDFTLSINSVESEDVGVYYCQNSHSFPLTFGSGTKLELKR
Regarding B15, the equilibrium dissociation constant (Kd) in the experiment with recombinant human sc-uPA [1] worked out at 5.4 nM.

B16: rec0266-0000-0010-VL_N90E (antibody, mouse IgG1, name in Kabat numbering, V domains shown)
VH: DVKLVESGGGLVKPGGSLKLSCVASGFTFSSYTMSWVRQTPEKRLEWVATISGGGSHIYYADSVKGRFTISRDNAKNTLYLQMSSLKSEDTAIYYCTRDGRDGSWFAYWGQGTLVTVSA
VL: DIVMTQSPATLSVTPGDRVSLSCRTSQSIGDYLHWYQQKSHESPRLLIKYVSQSISGIPSRFSGSGSGSDFTLSINSVESEDVGVYYCQESHSFPLTFGSGTKLELKR
With B16, the Kd with recombinant human sc-uPA [2] stood at 0.43 nM.

B17: rec0266-0000-0010-VH_G99E (antibody, mouse IgG1, V domains shown)
VH: DVKLVESGGGLVKPGGSLKLSCVASGFTFSSYTMSWVRQTPEKRLEWVATISGGGSHIYYADSVKGRFTISRDNAKNTLYLQMSSLKSEDTAIYYCTRDGRDESWFAYWGQGTLVTVSA
VL: DIVMTQSPATLSVTPGDRVSLSCRTSQSIGDYLHWYQQKSHESPRLLIKYVSQSISGIPSRFSGSGSGSDFTLSINSVESEDVGVYYCQNSHSFPLTFGSGTKLELKR
With B17, the Kd with recombinant human sc-uPA [1] came to 1.4 nM.

B18: rec0266-0000-0010-VH_G99L (antibody, mouse IgG1, V domains shown)
VH: DVKLVESGGGLVKPGGSLKLSCVASGFTFSSYTMSWVRQTPEKRLEWVATISGGGSHIYYADSVKGRFTISRDNAKNTLYLQMSSLKSEDTAIYYCTRDGRDLSWFAYWGQGTLVTVSA
VL: DIVMTQSPATLSVTPGDRVSLSCRTSQSIGDYLHWYQQKSHESPRLLIKYVSQSISGIPSRFSGSGSGSDFTLSINSVESEDVGVYYCQNSHSFPLTFGSGTKLELKR
Turning to B18, in the experiment with recombinant human sc-uPA [1], the dissociation constant (Kd) was 2.1 nM.
